Assay results as given in patent US20240327505A1 (published 2024).

Key:
[1] = target: SARS-CoV-2 spike S2 protein (SARS-CoV-2, UniProt P0DTC2 686-1213)
[2] = target: SARS-CoV-2 spike S1 protein (SARS-CoV-2, UniProt P0DTC2 16-685)
[3] = target: SARS-CoV-2 spike S1 protein (SARS-CoV-2, UniProt P0DTC2 16-685); remark: listed apart in the source

Row | Binder | Kd [1] [nM] | koff [1] [s⁻¹] | kon [1] [M⁻¹ s⁻¹] | Kd [2] [nM] | koff [2] [s⁻¹] | kon [2] [M⁻¹ s⁻¹] | also measured
1 | AB-009293 (antibody, V domains shown) VH: QAQLVESGGGVVQPGRSLRLSCAASGFNFNNYGMHWVRLAAGKGLEWVAFISYEGSITHYADSVKGRFTVSRDFSKNTLYLQMNRLTTGDTAVYYCAKRREVLHLWRDEMDVWGQGTTVTVSS VL: DIQMTQSPPSLSASVGDRVTFTCRASQDITNSLAWFQQRPGKAPKSLIYAASTLHSGVPSKFSGSGSGTDFTLTITSLQPEDVATYYCQQYKTYPFTFGQGTRLEIK | 0.0628 | 3.25e-07 | 5170 |  |  |  | 
2 | AB-009634 (antibody, V domains shown) VH: QVTLKESGPALVKPTQTLTLTCTFSGFSLSTSGMRVSWIRQPPGKALEWLARIDWDDDKFYSTSLKTRLTISKDTSKNQVVLTMTNMDPVDTATYYCARYYYYGMDVWGQGTTVTVSS VL: not shown |  |  |  | 24.8 | 0.000496 | 20000 | 
3 | AB-009646 (antibody, V domains shown) VH: QVQLVESGGGVVQPGRSLRLSCAASGFTFSSYAMHWVRQAPGKGLEWVAVISYDGSNKYYADSVKGRFTISRDNSKNTLYLQMNSLRAEDTAVYYCARACSSTSCYKGDAFDIWGQGTMVTVSS VL: SYELTQPPSVSVSPGQTARITCSGDALPKQYAYWYQQKPGQAPVLVIYKDSERPSGIPERFSGSSSGTTVTLTISGVQAEDEADYYCQSADSSGTYSWVFGGGTKLTVL |  |  |  | 150 | 0.00231 | 15500 | 
4 | AB-009123 (antibody, V domains shown) VH: QVQLLQSGAEVRKPGASVKVSCKASGYTFSSYVMHWVRQAPGQGLEWMGWINTGNGNTRYSQKIQGRVTFTIDTAANTVNMEVSSLRSEDTAVYYCAREGLRATHYFDYWGRGTLVTVSS VL: SYELTQPPSVSVSSGQTASIPCSGDRVGDRYVCWYQQKPGQSPVLVIYQDSKRPSGIPERFSGSNSGSTATLTISGTQAIDEADYYCQAWDSSTGGVFGGGTKLTVL | 18.9 | 0.000802 | 42500 |  |  |  | 
5 | AB-009270 (antibody, V domains shown) VH: QMQLVQSGPEVKKPGTSVKVSCKASGFTFTSSAMQWVRQARGQRLEWIGWIVVGSGNTNYAQKFQERVTITRDMSTSTAYMELSSLRSEDTAVYYCAVNYCSSTSCYDAFDIWGQGTMVTVSS VL: not shown |  |  |  |  |  |  | Kd [3]: 3.02 nM
6 | AB-009615 (antibody, V domains shown) VH: QVQLVESGGGVVQPGRSLRLSCAASGFTFSSYGMHWVRQAPGKGLEWVAVIWYDGSNKYYADSVKGRFTISRDNSKNTLYLQMNSLRAEDTAVYYCAKVGSPYCSGGSCYSGYFDYWGQGTLVTVSS VL: not shown |  |  |  |  |  |  | Kd [3]: 36.6 nM; koff [3]: 0.00276 s⁻¹; kon [3]: 75400 M⁻¹ s⁻¹
7 | AB-009280 (antibody, V domains shown) VH: QVQLVESGGGVVQPGRSLRLSCAASGFTFSSYGMHWVRQAPGKGLEWVAVISYDGSNKYYADSVKGRFTISRDNSKNTLYLQMNSLRAEDTAVYYCAKSRGGGYYYYYMDVWGKGTTVTVSS VL: DIQMTQSPSSLSASVGDRVTITCRASQGISNYLAWFQQKPGKAPKSLIYAASSLQSGVPSKFSGSGSGTDFTLTISSLQPEDFATYYCQQYNSYPPTFGQGTKLEIK |  |  |  | 20.5 | 0.000536 | 26200 | 
8 | AB-009609 (antibody, V domains shown) VH: QVQLVQSGAEVKKPGASVKVSCKVSGYTLTELSMHWVRQAPGKGLEWMGGFDPEDAETIYAQKFQGRVTMTEDTSTDTAYMELSSLRSEDTAVYYCATALAVTGTSDSYYYYYGMDVWGQGTTVTVSS VL: not shown |  |  |  | 49.4 | 0.00229 | 46400 | 
9 | AB-009078 (antibody, V domains shown) VH: QITLKESGPTLVKPTQTLTLTCTFSGFSLSTSGVGVGWIRQPPGKALEWLALIYWDDDKRYSPSLKSRLTITKDTSKNQVVLTMTNMDPVDTATYYCAHRPGDFWSGYYRYWGQGTLVTVSS VL: not shown | 0.0474 | 2.44e-07 | 5150 |  |  |  | 
10 | AB-009281 (antibody, V domains shown) VH: EVQLVETGGGLIQPGGSLRLSCAASGFTVSSNYMSWVRQAPGKGLEWVSVIYSGGSTYYADSVKGRFTISRDNSKNTLYLQMNSLRAEDTAVYYCARDLYYYGMDVWGQGTTVTVSS VL: DIQLTQSPSFLSASVGDRVTITCRASQGISSYLAWYQQKPGKAPKLLIYAASTLQSGVPSRFSGSGSGTEFTLTISSLQPEDFATYYCQQLNSYPTFGQGTKVEIK |  |  |  |  |  |  | Kd [3]: 16.7 nM; koff [3]: 0.00136 s⁻¹; kon [3]: 81200 M⁻¹ s⁻¹
11 | AB-009635 (antibody, V domains shown) VH: not shown VL: SYELTQPPSVSVSPGQTARITCSGDALPKKYAYWYQQKSGQAPVLVIYEDSKRPSGIPERFSGSSSGTMATLTISGAQVEDEADYYCYSTDSSGNHRVFGGGTKLTVL |  |  |  | 10.5 | 0.000749 | 71500 | 
12 | AB-009306 (antibody, V domains shown) VH: QVQLVQSGAEVKKPGASVKVPCKASGYTFTSYQMHWVRRAPGQGLEWMGLIDPDTGGTRYTQNFQGRVTMTRDTSTTTVYMELNSLTSGDTAVYYCARGGRVGATYPYNMDVWGKGTTVTVSS VL: SYELTQPPSVSVSPGQTARITCSGDALPKKYAYWYQQKSGQAPVLVIYEDSKRPSGIPERFSGSSSGTMATLTISGAQVEDDSDYYCFSTDSSGNHGVFGGGTRLTVL | 0.22 | 2.44e-07 | 1110 |  |  |  | 
13 | AB-009074 (antibody, V domains shown) VH: QVQLVESGGGVVQPGRSLRLSCAASGFTFSSYGMHWVRQAPGKGLEWVAVIWYDGSNKYYADSVKGRFTISRDNSKNTLYLQMNSLRAEDTAVYYCAREGLVGATTGFDYWGQGTLVTVSS VL: SYELTQPPSVSVSPGQTARITCSGDALPKKYAYWYQQKSGQAPVLVIYEDSKRPSGIPERFSGSSSGTMATLTISGAQVEDEADYYCYSTDSSGNHGVFGTGTKVTVL | 91.3 | 0.0011 | 12000 |  |  |  | 
14 | AB-009731 (antibody, V domains shown) VH: QVQLVQSGAEVKKTGASVKLSCKASGYSLTSYAMHWVRQAPGQRLEWMGWLNGGNGNTKYSQKFQARVTITSDTSARTVYMELSSLTSEDTAVYYCARADHSTYWYGWFDPWGQGTLVTVSS VL: QSVLTQPPSASGTPGQRVTISCSGSTSNIGSNYVFWYQQFPGTAPKLLIYRNDQRPSGVPDRFSASKAGTSASLAISGLRSEDEADYYCTSWDDSLNGPLFGGGTKLTVL |  |  |  | 47.9 | 0.00294 | 61400 | 
15 | AB-009346 (antibody, V domains shown) VH: EVQLVESGGGVVRPGGSLRLSCAASGFTFDDYGMSWVRQAPGKGLEWVSGINWNGGSTGYADSVKGRFTISRDNAKNSLYLQMNSLRAEDTALYYCARWPLLGISGYYHYYMDVWGKGTTVTVSS VL: QSALTQPRSVSGSPGQSVTISCTGTSSDVGGYNYVSWYQQHPGKAPKLMIYDVSKRPSGVPDRFSGSKSGNTASLTISGLQAEDEADYYCCSYAGSYTLLFGGGTKLIVL |  |  |  |  |  |  | Kd [3]: 12.5 nM; koff [3]: 0.000523 s⁻¹; kon [3]: 41700 M⁻¹ s⁻¹
16 | AB-009117 (antibody, V domains shown) VH: ELQLVESGGGLVKPGGSLRLSCTASGFTFISYSISWVRQAPGKGLEWVSSISSYSNYIFYGDSVKGRFNISRDNPKNSVYLQLNSLRAEDTAVYYCVRDTSFYEGGGYYNRFEPWGQGTRVTVSS VL: EIVMTQSPATLSVSPGERATLSCRASQSISINLAWYQQRPGQAPRLLIYGASTRATGIPARFSGSGSGTEFTLTISSLQSEDSAVYYCQQYNNWPPYTFGQGTTLEIK | 11.5 | 0.000438 | 38200 |  |  |  | 
17 | AB-009263 (antibody, V domains shown) VH: EVQLVQSGAEVKKPGESLRISCQSSGYSFSTYWIAWVRQTPEKGLEWMGIIYPGDSDTRYSPTFQGQVTISADTSISTAYLQWSSLKASDTAVYYCARFRFNWLLSYYYYYMDVWGKGTTVSVSS VL: QSALTQPDSVSGSPGQSIAISCTGTSRDVGGYNYVSWYQQHPGKAPKLMIYEVSNRPSGVSDRFSGSKSDNTASLTISGLQGDDEANYYCSSYTDSGTLVFGGGTKVTVL | 0.0383 | 3.82e-07 | 9980 |  |  |  | 
18 | AB-009108 (antibody, V domains shown) VH: QVQLQESGPGLVKPSETLALTCTVSGDSIINNNFYWGWLRQPPGQGLEWIGSLFHTGSAYYNSSLKSRVRSSVDTARNQISLRLSSVTAADTAVYYCARVNIVSVPAPPGAIEGWFDPWGQGTRVTVSP VL: SYELTQPPSVSVSLGQTARISCSGDALPTKYVHWYQQKAGQAPVVVIFRDTERPSEIPERFSGSSSGTTVTLTISGVQAEDEADYYCQSVDGSGFYVFGSGTKVTVL |  |  |  | 94.3 | 0.0126 | 134000 | 
19 | AB-009637 (antibody, V domains shown) VH: QVQLVQSGAEVKKPGSSVKVSCKASGGTFSSYAISWVRQAPGQGLEWMGGIIPILGTANYAQKFQGRVTITADKSTSTAYMELSSLRSEDTAMYYCAREGGFYGSGRNFDYWGQGTLVTVSS VL: not shown |  |  |  | 412 | 0.000174 | 421 | 
20 | AB-009619 (antibody, V domains shown) VH: QVQLVQSGAEVKKPGASVKVSCKVSGYTLIELSMHWVRQAPGKGLEWMGGFDPEDGETIYAQKFQGRVTMTEDTSTDTAYMELSSLRSEDTAVYYCATGPAAATSGWFDPWGQGTLVTVSS VL: QSALTQPASVSGSPGQSITISCTGTSSDVGGYNYVSWYQQHPGKAPKLMIYDVSNRPSGVSNRFSGSKSGNTASLTISGLQAEDEADYYCSSYTSSSTRVFGGGTKLTVL |  |  |  | 25.8 | 0.000726 | 28100 | 
21 | AB-009275 (antibody, V domains shown) VH: QVTLRESGPALVKPTQTLTLTCTFSGFSLSTSGMRVSWIRQPPGKALEWLARIDWDDDKFYSTSLKTRLTISKDTSKNQVVLTMTNMDPVDTATYYCARSNYDILTGRLDAFDIWGQGTMVTVSS VL: not shown |  |  |  | 127 | 0.00083 | 6530 | 
22 | AB-009722 (antibody, V domains shown) VH: QVQLVQSGAEVRKPGSSVKVSCNVSGGIFNSYKITWVRQAPGQGLEWMGGIIAIFGTADYAQRFQGRLSITADESTSTAYMELSSLRSDDTAVYYCTRERFSNYFDPWGQGTLVTVSS VL: EVVLTQSPATLSLSPGERATLSCRASQSVSSFLGWYQQKPGQAPRLLIYDASNRASGIPARFSGSGSGTDFTLTISKLEPEDFAVYYCQQRSRGPSGITFGQGTRLEIK |  |  |  | 41.2 | 0.00236 | 57300 | 
